Patent US20200317791A1 (Janssen / Centocor, published 2020)
Residue numbers refer to the chain shown, from its start. Where two headings read alike, the source gives them in different places.

Tests used:
A24_A*24:02 [1] = biological target: T1, A24_A*24:02 (human, UniProt A*24:02); assay: LABScreen beads
T1 construct: on LABScreen bead; also called HLA-A*24:02 (LABScreen class I bead)
T1 heavy chain: not shown

[2] = biological target: T2, CW6W36 (rhHLA-Cw6/ADAMTSL5) (human); assay: SPR Biacore 8K, captured mAb; Acceptable fit
T2 construct: also called CW6W36.002; rHLA-Cw6/ADAMTSL5
Text: (§1) To further characterize the ability of the antibodies to differentiate between class I MHC molecules.

CW6W35.001 = assay: SPR Biacore 8K, captured mAb; Acceptable fit
Text: as §1

CW6W51.001 = assay: SPR Biacore 8K, captured mAb; Acceptable fit
Text: as §1

CW6W53.001 = assay: SPR Biacore 8K, captured mAb; Acceptable fit
Text: as §1

CW6W54.001 [3] = assay: SPR Biacore 8K, captured mAb; Acceptable fit
Text: as §1

CW6W32 (rhHLA-Cw6/TRAT) [4] = biological target: T3, CW6W32 (rhHLA-Cw6/TRAT) (human); assay: SPR Biacore 8K, captured mAb; Kinetic fit not valid
T3 construct: also called CW6W32.009; rHLA-Cw6/TRAT

[5] = biological target: T4, CW6W3.ECO.PP.002/.003 (rhHLA-Cw6/ARF) (human); assay: SPR ProteOn XPR36, captured mAb; valid kinetic fit, range of two replicates
T4 construct: also called rhHLA-Cw6/ARFN; rHLA-Cw6/ARFN
Experimental: (§2) Anti-HLA-Cw6 mAbs were captured at ligand densities ranging from 100 to 200 response units. […] All analyses were conducted in PBST at 100 μL/min flow rate with association and dissociation times of 180 and 900 seconds, respectively. […] Analyte raw data was double referenced by subtraction of the blank surface response at “interspots” (to correct for refractive index changes and any non-specific interactions with the chip surface) and of the buffer blank response (to correct for any baseline drift resulting from mAb dissociation over time). Referenced data were globally fit to a 1:1 simple Langmuir binding model. Kinetic parameters were calculated for each mAb/antigen combination or interaction using Bio-Rad ProteOn Manager software (version 3.1.0.6) with parameter (kon, koff, Rmax) scope and type set to “Grouped” and “Fitted,” respectively.

[6] = biological target: T4, CW6W3.ECO.PP.002/.003 (rhHLA-Cw6/ARF); assay: SPR ProteOn XPR36, captured mAb; valid kinetic fit, range of two replicates (upper end)
Experimental: as §2

[7] = biological target: T5, rhHLA-B7 stably expressed on K562 cells (K562-rhHLA-B7) (human, UniProt P01889 25-362); assay: MSD cell binding
T5 construct: also called K562-rehHLA-B7

[8] = biological target: T6, rhHLA-Cw6 stably expressed on K562 cells (K562-rhHLA-Cw6) (human, UniProt P10321 25-366); assay: MSD cell binding
T6 construct: also called K562-HLA-Cw6
Experimental: (§3) The blocking buffer was aspirated, 20 μl of prepared test antibodies were added to appropriate wells, and the plate was incubated further for 1 hour at RT. The plate was washed three times with 80 μl PBS, and then each well received 20 μl/well of a 1 μg/ml SulfoTag labeled secondary detection antibody solution. After a 1-hour incubation at RT, the plate was washed three times with 80 μl PBS, and 50 μl/well of a 1× MSD Read Buffer T (surfactant free) (MSD #R92TD-1) was added and the plate was read on an MSD Sector 600 Plate Reader.
T6 MHC heavy: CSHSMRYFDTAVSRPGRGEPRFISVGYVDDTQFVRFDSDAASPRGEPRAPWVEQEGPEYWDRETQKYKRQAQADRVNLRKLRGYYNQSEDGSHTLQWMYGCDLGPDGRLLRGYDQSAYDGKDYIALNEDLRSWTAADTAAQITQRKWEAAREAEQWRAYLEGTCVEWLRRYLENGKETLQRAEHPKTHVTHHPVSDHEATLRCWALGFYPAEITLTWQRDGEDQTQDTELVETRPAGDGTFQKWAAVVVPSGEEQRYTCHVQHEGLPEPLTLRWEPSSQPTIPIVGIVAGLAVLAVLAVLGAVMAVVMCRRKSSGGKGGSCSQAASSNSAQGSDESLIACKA

[9] = biological target: T5, rhHLA-B7 stably expressed on K562 cells …; assay: MSD cell binding; remark: listed apart in the source
Experimental: as §3

CW6W47.001 = assay: SPR Biacore 8K, captured mAb; Acceptable fit
Text: as §1

CW6W56.ECO.PP.001 = assay: SPR Biacore 8K, captured mAb; Acceptable fit
Text: as §1

[10] = biological target: T4, CW6W3.ECO.PP.002/.003 (rhHLA-Cw6/ARF); assay: SPR ProteOn XPR36, captured mAb; valid kinetic fit;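 also: Anti-HLA-Cw6 mAbs captured at 100–200 RU, antigen flowed in PBST, 180 s association and 900 s dissociation, double-referenced sensorgrams globally fit to a 1:1 Langmuir model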
Experimental: as §2

CW6W32 (rhHLA-Cw6/TRAT) [11] = biological target: T3, CW6W32 (rhHLA-Cw6/TRAT); assay: SPR ProteOn XPR36, captured mAb; valid kinetic fit;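 also: Anti-HLA-Cw6 mAbs captured at 100–200 RU, antigen flowed in PBST, 180 s association and 900 s dissociation, double-referenced sensorgrams globally fit to a 1:1 Langmuir model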
Experimental: as §2

[12] = biological target: T2, CW6W36 (rhHLA-Cw6/ADAMTSL5); assay: SPR ProteOn XPR36, captured mAb; valid kinetic fit;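 also: Anti-HLA-Cw6 mAbs captured at 100–200 RU, antigen flowed in PBST, 180 s association and 900 s dissociation, double-referenced sensorgrams globally fit to a 1:1 Langmuir model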
Experimental: as §2

CW6W54.001 [13] = assay: SPR Biacore 8K, captured mAb; Kinetic fit not valid
CW6W55.ECO.PP.002 [14] = assay: as above
A24_A*24:02 [15] = biological target: T1, A24_A*24:02; assay: LABScreen beads
A24_A*24:02 [16] = biological target: T1, A24_A*24:02; assay: LABScreen beads
CW6W55.ECO.PP.002 [17] = assay: SPR Biacore 8K, captured mAb; Acceptable fit
Text: as §1
A24_A*24:02 [18] = biological target: T1, A24_A*24:02; assay: LABScreen beads
[19] = biological target: T7, HLA-Cw6/TRAT on K562-rhHLA-Cw6 cells loaded with TRAT peptide (human, UniProt P10321 25-366); assay: cell-based or functional assay
T7 MHC heavy: […]
T7 peptide: TRATKMQVI

A24_A*24:02 [20] = biological target: T1, A24_A*24:02; assay: LABScreen beads

T5 sequence (P01889 25-362 limits assumed): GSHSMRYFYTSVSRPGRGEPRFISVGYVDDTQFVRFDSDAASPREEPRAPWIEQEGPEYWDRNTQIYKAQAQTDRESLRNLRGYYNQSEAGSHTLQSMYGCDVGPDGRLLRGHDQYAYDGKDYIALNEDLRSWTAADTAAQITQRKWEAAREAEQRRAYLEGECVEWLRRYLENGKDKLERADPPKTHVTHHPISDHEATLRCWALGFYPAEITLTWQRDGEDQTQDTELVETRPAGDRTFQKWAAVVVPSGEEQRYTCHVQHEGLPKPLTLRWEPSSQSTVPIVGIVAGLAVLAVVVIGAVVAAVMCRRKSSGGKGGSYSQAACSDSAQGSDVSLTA

B1: CW6B175 (antibody, V domains shown)
VH: EVQLVESGGGLVQPGGSLRLSCAASGFTFTNYWMTWVRQAPGKGLEWVANIKQSGSEKYYVDSVKGRFTISRDNAKNSLYLQMNSLRAEDTAVYYCARTLYEWELEPFDYWGQGTLVTVSS
VL: SYVLTQPPSVSVAPGQTARITCGGNRIGSKSVHWYQQKPGQAPVLVVFDDSDRPSGIPERFSGSNSGITATLTISRVEAGDEADYYCQVWDSSNDHVVFGGGTKLTVL
notes: also called CW6B175.001; CW6M175 (DNA ID)
A24_A*24:02 [1]
  binding result: no binding (tested: 10 µg/ml)
[2]
  Kd: 1.87 nM
  koff: 0.0163 s⁻¹
  kon: 8.73e+06 M⁻¹ s⁻¹
CW6W35.001
  Kd: 0.12 nM
  koff: 0.000126 s⁻¹
  kon: 1.05e+06 M⁻¹ s⁻¹
CW6W51.001
  Kd: 0.157 nM
  koff: 0.000285 s⁻¹
  kon: 1.82e+06 M⁻¹ s⁻¹
CW6W53.001
  Kd: 0.327 nM
  koff: 0.00056 s⁻¹
  kon: 1.72e+06 M⁻¹ s⁻¹
CW6W54.001 [3]
  Kd: 0.128 nM
  koff: 0.000842 s⁻¹
  kon: 6.6e+06 M⁻¹ s⁻¹
CW6W32 (rhHLA-Cw6/TRAT) [4]
  Kd: 0.663 nM
  koff: 0.284 s⁻¹
  kon: 4.28e+08 M⁻¹ s⁻¹
[5]
  Kd: 0.0285 nM
  koff: 0.000314 s⁻¹
  kon: 1.05e+07 M⁻¹ s⁻¹
[6]
  Kd: 0.0346 nM
  koff: 0.000363 s⁻¹
  kon: 1.1e+07 M⁻¹ s⁻¹

B2: CW6B233 (antibody, V domains shown)
VH: QVQLQESGPGLVKPSETLSLTCTVSGNSIRSYYWSWIRQPAGKGLEWIGRIYISGNTNYNPSLKSRVTMSIDTSKNQFSLKLSSVTAADTAVYYCARLSGIDAFDIWGQGTMVTVSS
VL: DIQMTQSPSSLSASVGDRVTITCQASQDITNYLNWYQQKPGKAPKLLIYDASNLETGVPSRFSGSGSGTDFTFTISSLQPEDFATYYCQQYDNLPITFGQGTRLEIK
notes: also called CW6B233.001; CW6M233 (DNA ID)
[7]
  binding result: no binding
[8]
  HLA-Cw6 Selective (K562-rhHLA-Cw6 specific/K562-rhHLA-B7 specific): 44 ratio
  HLA-Cw6 Specific (K562-rhHLA-Cw6/K562 Parent binding signal): 36 ratio
[9]
  HLA-B7 Specific (K562-rhHLA-B7/K562 Parent binding signal): 0.8 ratio
[2]
  Kd: 3.82 nM
  koff: 0.00433 s⁻¹
  kon: 1.14e+06 M⁻¹ s⁻¹
CW6W35.001
  Kd: 3.59 nM
  koff: 0.000758 s⁻¹
  kon: 211000 M⁻¹ s⁻¹
CW6W47.001
  Kd: 9.63 nM
  koff: 0.00801 s⁻¹
  kon: 832000 M⁻¹ s⁻¹
CW6W51.001
  Kd: 1.18 nM
  koff: 0.000514 s⁻¹
  kon: 437000 M⁻¹ s⁻¹
CW6W53.001
  Kd: 2.09 nM
  koff: 0.00073 s⁻¹
  kon: 350000 M⁻¹ s⁻¹
CW6W56.ECO.PP.001
  Kd: 1.26 nM
  koff: 0.00107 s⁻¹
  kon: 849000 M⁻¹ s⁻¹
[10]
  Kd: 0.29 nM
  koff: 0.000293 s⁻¹
  kon: 1.02e+06 M⁻¹ s⁻¹
CW6W32 (rhHLA-Cw6/TRAT) [11]
  Kd: 1.55 nM
  koff: 0.00234 s⁻¹
  kon: 1.51e+06 M⁻¹ s⁻¹
[12]
  Kd: 1 nM
  koff: 0.00355 s⁻¹
  kon: 3.56e+06 M⁻¹ s⁻¹
CW6W32 (rhHLA-Cw6/TRAT) [4]
  Kd: 3.73 nM
  koff: 0.00203 s⁻¹
  kon: 544000 M⁻¹ s⁻¹
CW6W54.001 [13]
  Kd: 0.798 nM
  koff: 0.000484 s⁻¹
  kon: 607000 M⁻¹ s⁻¹
CW6W55.ECO.PP.002 [14]
  Kd: 7.3 nM
  koff: 1.22 s⁻¹
  kon: 1.67e+08 M⁻¹ s⁻¹

B3: CW6B229 (antibody, V domains shown)
VH: B2 VH with Y93F
VL: B2 VL with T30S
notes: also called CW6B229.001; CW6M229 (DNA ID)
A24_A*24:02 [15]
  binding result: no binding (tested: 10 µg/ml)
CW6W56.ECO.PP.001
  Kd: 1.23 nM
  koff: 0.00127 s⁻¹
  kon: 1.03e+06 M⁻¹ s⁻¹
CW6W54.001 [13]
  Kd: 0.673 nM
  koff: 0.000465 s⁻¹
  kon: 691000 M⁻¹ s⁻¹
CW6W55.ECO.PP.002 [14]
  Kd: 7.1 nM

B4: CW6B230 (antibody, V domains shown)
VH: B2 VH with R30S, S31N, S54T, I71L
VL: B2 VL with S10T, I21F, N31K, N93D
notes: also called CW6B230.001; CW6M230 (DNA ID)
A24_A*24:02 [16]
  binding result: no binding (tested: 10 µg/ml)
CW6W55.ECO.PP.002 [17]
  Kd: 8.9 nM
  koff: 0.00655 s⁻¹
  kon: 737000 M⁻¹ s⁻¹
CW6W56.ECO.PP.001
  Kd: 2.07 nM
  koff: 0.00295 s⁻¹
  kon: 1.42e+06 M⁻¹ s⁻¹
CW6W54.001 [13]
  Kd: 1.4 nM
  koff: 0.000655 s⁻¹
  kon: 467000 M⁻¹ s⁻¹

B5: CW6B228 (antibody, V domains shown)
VH: B2 VH
VL: B2 VL with T30N, N53S, N93D
notes: also called CW6B228.001; CW6M228 (DNA ID)
[7]
  binding result: no binding
[8]
  HLA-Cw6 Selective (K562-rhHLA-Cw6 specific/K562-rhHLA-B7 specific): 78 ratio
  HLA-Cw6 Specific (K562-rhHLA-Cw6/K562 Parent binding signal): 75 ratio
[9]
  HLA-B7 Specific (K562-rhHLA-B7/K562 Parent binding signal): 1 ratio
[10]
  Kd: 0.04 nM
  koff: 0.000178 s⁻¹
  kon: 4.89e+06 M⁻¹ s⁻¹
CW6W32 (rhHLA-Cw6/TRAT) [11]
  Kd: 0.09 nM
  koff: 0.000534 s⁻¹
  kon: 5.98e+06 M⁻¹ s⁻¹
[12]
  Kd: 0.05 nM
  koff: 0.000732 s⁻¹
  kon: 1.52e+07 M⁻¹ s⁻¹

B6: CW6B237 (antibody, V domains shown)
VH: QVTLKESGPVLVKPTETLTLTCTVSGFSLSNARMGVSWIRQPPGKALEWLAHIFSHDEKFYSTFLKSRLTISKDTSKSQVVLMMTNMDPVDTATYYCARIILSSSGHDAFDIWGQGTMVTVSS
VL: AIQMTQSPSSLSASVGDRVTITCRASQDIRHNLGWYQQKPGKAPNLLIYAASSLQSGVPSRFSGSGSGTDFILTISSLQPEDFATFFCLQDYIYPLTFGGGTKVEIK
notes: also called CW6B237.001; CW6M237 (DNA ID)
A24_A*24:02 [18]
  binding result: no binding (tested: 10 µg/ml)
[19]
  IC50 (read off the curve): ~0.3 µg/mL

B7: CW6B238 (antibody, V domains shown)
VH: B6 VH with S30N, I53M, H56S, S62R, F64S, M83T, I101S, S103Y, A109T, I112L
VL: B6 VL with H31N, N32T, I72T, F86Y, F87Y, I93D
notes: also called CW6B238.001; CW6M238 (DNA ID)
A24_A*24:02 [20]
  binding result: no binding (tested: 10 µg/ml)
